Experimental data reported in PMC6168491, “Sin3A recruits Tet1 to the PAH1 domain via a highly conserved Sin3-Interaction Domain” (Scientific Reports, 2018).
Where two headings read alike, the source gives them in different places.

T1: PAH1(115–212) for NMR (UniProt Q60520 115-212)
T1 construct: Sin3A PAH1 domain, residues 115–212; Same construct as m29; also called apo-PAH1; 15N-labelled PAH1(115–212); source: 15N labelled in M9 minimal media
T1 sequence (looked up): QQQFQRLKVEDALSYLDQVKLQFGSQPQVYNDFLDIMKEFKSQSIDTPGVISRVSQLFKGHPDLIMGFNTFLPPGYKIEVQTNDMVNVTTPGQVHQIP


Target: T1, PAH1(115–212) for NMR
Test: NMR titration; 15N-HSQC of 150 µM 15N-labelled PAH1(115–212) with 150 µM unlabelled Tet1(878–911) (1:1; also sub-stoichiometric ratio); 303 K; 20 mM Tris-HCl pH 7.4, 50 mM NaCl, 1 mM DTT; average minimal shift analysis

Row | Δδmin (average minimal shift, relative to the WT complex) (both partners purified) | Molecule | also measured
1 | 0.074 | LSLMKDRRLTLEQVVAIEALTQASEAPSESSSPS (domain or fragment, UniProt Q3URK3 861-894, looked up, Tag removal for NMR was conducted as needed) [Tet1-SID(878–911) L900A for NMR] | 
2 | 0.026 | LSLMKDRRLTLEQVVAIEALAQLSEAPSESSSPS (domain or fragment, UniProt Q3URK3 861-894, looked up, Tag removal for NMR was conducted as needed) [Tet1-SID(878–911) T898A for NMR] | 

More lines, now with the values behind:

Row | Molecule | Δδmin (average minimal shift, relative to the WT complex) (both partners purified) | also measured
3 | Tet1-SID(878–911) L897A for NMR (from UniProt Q3URK3 861-894) (domain or fragment) |  | Δδmin (average minimal shift, relative to the WT complex): 0.118; Δδmin (average minimal shift, relative to the apo-protein): 0.061
4 | LSLMKDRRLTLEQVVAIEALTQLSEAPSESSSPS (domain or fragment, UniProt Q3URK3 861-894, looked up, Same construct as m24; also called WT) [Tet1-SID(878–911) for NMR] |  | Kd (both partners purified): < 100 nM
5 | LSLMKDRRLTLEQVVAAEALTQLSEAPSESSSPS (domain or fragment, UniProt Q3URK3 861-894, looked up, Tag removal for NMR was conducted as needed) [Tet1-SID(878–911) I894A for NMR] | 0.061 | 
6 | LSLMKDRRLTLEQVVAIEALEQLSEAPSESSSPS (domain or fragment, UniProt Q3URK3 861-894, looked up, Tag removal for NMR was conducted as needed) [Tet1-SID(878–911) T898E for NMR] | 0.038 | 
